# Results as given in IntAct's records for PubMed 31515488.
# How the values were obtained:
# stat3_human STAT3 = stat3_human STAT3 (UniProt P40763)
# efs_human EFS = efs_human EFS (UniProt O43281)
# jkip2_human JAKMIP2 = jkip2_human JAKMIP2 (UniProt Q96AA8)
# ccdb1_human CCNDBP1 = ccdb1_human CCNDBP1 (UniProt O95273)
# nf2l2_human NFE2L2 = nf2l2_human NFE2L2 (UniProt Q16236)
# S100A1 = S100A1 (UniProt P23297)
# vtnc_human VTN = vtnc_human VTN (UniProt P04004)
# mycd_human MYOCD = target: T1, mycd_human MYOCD (UniProt Q8IZQ8)
# T1 sequence: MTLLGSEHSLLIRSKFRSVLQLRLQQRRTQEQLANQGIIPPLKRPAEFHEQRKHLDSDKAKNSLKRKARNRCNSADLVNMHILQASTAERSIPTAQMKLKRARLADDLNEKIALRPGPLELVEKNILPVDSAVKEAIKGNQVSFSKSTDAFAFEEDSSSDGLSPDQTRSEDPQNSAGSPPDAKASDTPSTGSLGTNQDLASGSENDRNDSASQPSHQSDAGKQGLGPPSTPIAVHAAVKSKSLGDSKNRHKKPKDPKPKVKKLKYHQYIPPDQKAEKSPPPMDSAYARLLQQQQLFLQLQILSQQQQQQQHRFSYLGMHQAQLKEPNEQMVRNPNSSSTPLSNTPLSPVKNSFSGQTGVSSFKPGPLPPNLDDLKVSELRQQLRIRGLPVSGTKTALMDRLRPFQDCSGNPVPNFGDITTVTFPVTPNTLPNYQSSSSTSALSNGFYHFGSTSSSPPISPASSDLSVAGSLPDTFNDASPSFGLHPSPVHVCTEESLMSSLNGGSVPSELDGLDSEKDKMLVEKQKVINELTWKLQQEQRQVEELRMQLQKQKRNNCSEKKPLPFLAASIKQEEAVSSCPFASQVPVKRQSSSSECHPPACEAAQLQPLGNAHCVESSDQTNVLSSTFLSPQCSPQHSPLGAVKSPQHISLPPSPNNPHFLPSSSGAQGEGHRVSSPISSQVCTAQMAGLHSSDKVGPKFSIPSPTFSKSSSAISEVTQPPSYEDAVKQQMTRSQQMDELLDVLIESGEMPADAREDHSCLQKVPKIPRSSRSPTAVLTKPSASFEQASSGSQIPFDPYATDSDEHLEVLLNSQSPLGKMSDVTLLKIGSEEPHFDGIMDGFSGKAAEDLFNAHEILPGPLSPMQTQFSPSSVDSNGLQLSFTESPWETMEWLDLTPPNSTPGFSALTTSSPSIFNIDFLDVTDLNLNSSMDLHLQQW
# gt253_human CERCAM = gt253_human CERCAM (UniProt Q5T4B2)
# fosl2_human FOSL2 = target: T2, fosl2_human FOSL2 (UniProt P15408)
# T2 sequence: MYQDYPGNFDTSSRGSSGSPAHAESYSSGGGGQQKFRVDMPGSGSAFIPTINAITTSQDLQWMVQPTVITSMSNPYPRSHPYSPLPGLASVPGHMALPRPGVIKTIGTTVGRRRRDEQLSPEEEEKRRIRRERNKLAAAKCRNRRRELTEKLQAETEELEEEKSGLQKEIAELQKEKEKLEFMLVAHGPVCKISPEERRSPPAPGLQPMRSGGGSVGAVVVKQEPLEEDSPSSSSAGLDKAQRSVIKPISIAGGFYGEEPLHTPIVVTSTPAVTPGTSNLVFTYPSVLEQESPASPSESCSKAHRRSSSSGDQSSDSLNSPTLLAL
# zsc32_human ZSCAN32 = zsc32_human ZSCAN32 (UniProt Q9NX65)
# pgbd1_human PGBD1 = pgbd1_human PGBD1 (UniProt Q96JS3)
# zn446_human ZNF446 = zn446_human ZNF446 (UniProt Q9NWS9)
# zn496_human ZNF496 = zn496_human ZNF496 (UniProt Q96IT1)
# leg9b_human LGALS9B = leg9b_human LGALS9B (UniProt Q3B8N2)
# anr44_human ANKRD44 = anr44_human ANKRD44 (UniProt Q8N8A2)
# pdli7_human PDLIM7 = pdli7_human PDLIM7 (UniProt Q9NR12)
# rgs3_human RGS3 = rgs3_human RGS3 (UniProt P49796)
# Sequence of rgs3_human RGS3 (P49796 whole entry): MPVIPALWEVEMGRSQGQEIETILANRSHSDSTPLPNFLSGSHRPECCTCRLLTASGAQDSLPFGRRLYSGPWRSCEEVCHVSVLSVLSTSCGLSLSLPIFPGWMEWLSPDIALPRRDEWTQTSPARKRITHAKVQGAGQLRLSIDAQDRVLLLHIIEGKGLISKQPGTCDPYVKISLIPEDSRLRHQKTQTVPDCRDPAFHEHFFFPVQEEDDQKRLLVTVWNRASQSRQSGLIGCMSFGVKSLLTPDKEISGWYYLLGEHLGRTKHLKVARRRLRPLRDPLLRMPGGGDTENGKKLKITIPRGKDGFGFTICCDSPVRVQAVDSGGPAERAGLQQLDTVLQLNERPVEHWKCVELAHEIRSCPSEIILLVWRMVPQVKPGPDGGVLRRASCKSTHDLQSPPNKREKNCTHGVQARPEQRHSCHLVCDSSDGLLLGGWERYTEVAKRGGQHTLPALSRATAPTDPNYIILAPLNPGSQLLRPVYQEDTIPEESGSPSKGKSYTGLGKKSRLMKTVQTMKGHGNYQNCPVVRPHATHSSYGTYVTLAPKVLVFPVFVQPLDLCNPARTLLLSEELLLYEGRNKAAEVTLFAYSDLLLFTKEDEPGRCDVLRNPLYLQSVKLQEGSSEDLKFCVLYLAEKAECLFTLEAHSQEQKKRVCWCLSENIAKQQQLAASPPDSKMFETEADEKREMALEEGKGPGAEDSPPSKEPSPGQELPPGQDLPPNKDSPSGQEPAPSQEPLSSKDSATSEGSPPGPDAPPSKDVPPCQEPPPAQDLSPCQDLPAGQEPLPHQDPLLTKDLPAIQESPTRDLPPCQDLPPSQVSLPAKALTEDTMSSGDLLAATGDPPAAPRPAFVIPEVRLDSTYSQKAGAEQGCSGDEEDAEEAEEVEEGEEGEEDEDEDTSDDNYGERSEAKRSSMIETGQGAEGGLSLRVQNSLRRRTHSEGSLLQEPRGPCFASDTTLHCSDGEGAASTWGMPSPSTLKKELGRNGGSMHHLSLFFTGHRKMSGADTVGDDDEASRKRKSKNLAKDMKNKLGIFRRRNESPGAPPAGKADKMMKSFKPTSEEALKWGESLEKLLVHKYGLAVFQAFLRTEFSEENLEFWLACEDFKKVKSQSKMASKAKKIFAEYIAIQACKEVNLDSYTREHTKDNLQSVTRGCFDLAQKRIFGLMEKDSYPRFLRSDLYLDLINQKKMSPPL
# nqo2_human NQO2 = target: T3, nqo2_human NQO2 (UniProt P16083)
# T3 sequence: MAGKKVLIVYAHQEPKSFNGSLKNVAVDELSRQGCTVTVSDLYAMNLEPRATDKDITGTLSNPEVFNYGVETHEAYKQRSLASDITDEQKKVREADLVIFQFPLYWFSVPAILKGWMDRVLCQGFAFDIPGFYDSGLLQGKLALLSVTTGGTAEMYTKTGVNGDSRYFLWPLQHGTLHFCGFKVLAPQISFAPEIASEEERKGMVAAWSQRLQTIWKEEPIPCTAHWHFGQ
# stox1_human STOX1 = stox1_human STOX1 (UniProt Q6ZVD7)
# tom1_human TOM1 = tom1_human TOM1 (UniProt O60784)
# cep70_human CEP70 [1] = target: cep70_human CEP70 (UniProt Q8NHQ1)
# Sequence of cep70_human CEP70 (Q8NHQ1 whole entry): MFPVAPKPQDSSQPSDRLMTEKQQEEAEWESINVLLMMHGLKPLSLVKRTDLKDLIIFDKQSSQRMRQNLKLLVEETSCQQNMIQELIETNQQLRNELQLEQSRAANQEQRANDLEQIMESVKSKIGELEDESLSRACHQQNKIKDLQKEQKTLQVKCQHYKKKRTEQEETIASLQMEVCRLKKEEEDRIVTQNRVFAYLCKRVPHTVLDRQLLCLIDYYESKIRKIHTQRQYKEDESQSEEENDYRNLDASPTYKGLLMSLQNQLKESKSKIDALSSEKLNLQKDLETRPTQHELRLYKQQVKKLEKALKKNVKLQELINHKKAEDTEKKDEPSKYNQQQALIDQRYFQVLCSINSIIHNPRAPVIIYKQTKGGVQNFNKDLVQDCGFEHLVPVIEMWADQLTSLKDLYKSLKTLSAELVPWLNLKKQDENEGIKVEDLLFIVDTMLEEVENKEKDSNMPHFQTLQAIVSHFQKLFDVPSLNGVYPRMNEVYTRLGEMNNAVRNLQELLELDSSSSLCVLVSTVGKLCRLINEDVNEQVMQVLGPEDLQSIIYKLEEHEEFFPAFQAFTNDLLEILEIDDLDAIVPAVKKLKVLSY
# cep70_human CEP70 [2] = target: cep70_human CEP70 (UniProt Q8NHQ1); remark: listed apart in the source
# tri41_human TRIM41 [3] = target: tri41_human TRIM41 (UniProt Q8WV44)
# cc136_human CCDC136 = cc136_human CCDC136 (UniProt Q96JN2)
# zc4h2_human ZC4H2 = zc4h2_human ZC4H2 (UniProt Q9NQZ6)
# cep70_human CEP70 [4] = target: cep70_human CEP70 (UniProt Q8NHQ1); remark: listed apart in the source
# tri41_human TRIM41 [5] = target: tri41_human TRIM41 (UniProt Q8WV44); remark: listed apart in the source
# mtus2_human MTUS2 = mtus2_human MTUS2 (UniProt Q5JR59)
# rhxf2_human RHOXF2 = target: T4, rhxf2_human RHOXF2 (UniProt Q9BQY4)
# T4 sequence: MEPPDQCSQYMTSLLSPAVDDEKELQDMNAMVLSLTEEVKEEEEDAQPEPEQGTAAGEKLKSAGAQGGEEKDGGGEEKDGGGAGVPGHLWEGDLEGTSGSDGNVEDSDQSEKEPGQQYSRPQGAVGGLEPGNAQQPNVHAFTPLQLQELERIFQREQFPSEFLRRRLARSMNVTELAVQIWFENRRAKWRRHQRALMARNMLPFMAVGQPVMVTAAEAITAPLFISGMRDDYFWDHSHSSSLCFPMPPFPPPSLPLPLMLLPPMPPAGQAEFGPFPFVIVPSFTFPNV
# odam_human ODAM = target: T5, odam_human ODAM (UniProt A1E959)
# T5 sequence: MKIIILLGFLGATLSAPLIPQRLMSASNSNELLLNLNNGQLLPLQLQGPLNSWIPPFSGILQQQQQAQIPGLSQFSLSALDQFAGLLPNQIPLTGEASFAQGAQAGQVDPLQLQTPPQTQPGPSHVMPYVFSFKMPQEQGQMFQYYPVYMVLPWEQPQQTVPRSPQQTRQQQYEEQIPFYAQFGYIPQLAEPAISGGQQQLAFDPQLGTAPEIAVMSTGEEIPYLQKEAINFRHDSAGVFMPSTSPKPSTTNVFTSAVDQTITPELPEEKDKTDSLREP
# scel_human SCEL = scel_human SCEL (UniProt O95171)
# Sequence of scel_human SCEL (O95171 whole entry): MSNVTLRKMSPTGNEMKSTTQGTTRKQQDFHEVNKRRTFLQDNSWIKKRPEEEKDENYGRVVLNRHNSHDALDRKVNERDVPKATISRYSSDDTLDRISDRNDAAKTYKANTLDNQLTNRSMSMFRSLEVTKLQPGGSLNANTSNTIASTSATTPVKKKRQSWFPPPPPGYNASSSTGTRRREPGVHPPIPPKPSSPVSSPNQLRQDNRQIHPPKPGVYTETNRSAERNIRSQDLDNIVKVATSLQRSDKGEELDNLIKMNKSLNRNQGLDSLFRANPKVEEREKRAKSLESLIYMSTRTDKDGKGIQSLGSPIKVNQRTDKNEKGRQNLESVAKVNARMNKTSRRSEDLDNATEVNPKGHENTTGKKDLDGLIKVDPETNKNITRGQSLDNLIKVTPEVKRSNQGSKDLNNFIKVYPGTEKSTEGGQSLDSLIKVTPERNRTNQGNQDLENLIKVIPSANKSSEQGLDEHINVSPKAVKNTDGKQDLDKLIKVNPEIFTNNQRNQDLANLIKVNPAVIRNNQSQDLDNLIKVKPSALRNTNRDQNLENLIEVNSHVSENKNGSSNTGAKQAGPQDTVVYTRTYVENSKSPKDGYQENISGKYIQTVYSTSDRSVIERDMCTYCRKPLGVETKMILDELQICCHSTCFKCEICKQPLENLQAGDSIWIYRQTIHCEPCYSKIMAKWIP
# cdkl3_human CDKL3 = cdkl3_human CDKL3 (UniProt Q8IVW4)
# ptps_human PTS = ptps_human PTS (UniProt Q03393)
# ap2m1_human AP2M1 = ap2m1_human AP2M1 (UniProt Q96CW1)
# Sequence of ap2m1_human AP2M1 (Q96CW1 whole entry): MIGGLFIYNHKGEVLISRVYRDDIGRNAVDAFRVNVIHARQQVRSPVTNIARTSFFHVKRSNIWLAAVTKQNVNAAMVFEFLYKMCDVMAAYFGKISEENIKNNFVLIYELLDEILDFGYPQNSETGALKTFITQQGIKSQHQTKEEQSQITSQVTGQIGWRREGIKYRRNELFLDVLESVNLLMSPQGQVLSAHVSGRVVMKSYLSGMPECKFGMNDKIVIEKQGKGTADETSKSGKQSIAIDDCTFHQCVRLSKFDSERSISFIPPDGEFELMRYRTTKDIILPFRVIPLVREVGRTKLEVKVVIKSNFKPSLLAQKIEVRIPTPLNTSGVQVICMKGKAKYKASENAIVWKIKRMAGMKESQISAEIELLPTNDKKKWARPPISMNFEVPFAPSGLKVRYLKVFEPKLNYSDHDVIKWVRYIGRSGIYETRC
# frih_human FTH1 = frih_human FTH1 (UniProt P02794)
# phs_human PCBD1 = phs_human PCBD1 (UniProt P61457)
# tb22b_human TBC1D22B = tb22b_human TBC1D22B (UniProt Q9NU19)
# pram_human PRAM1 = pram_human PRAM1 (UniProt Q96QH2)
# lcp2_human LCP2 = lcp2_human LCP2 (UniProt Q13094)
# FBP1 = FBP1 (UniProt P09467)
# snrpa_human SNRPA = snrpa_human SNRPA (UniProt P09012)
# ptbp2_human PTBP2 = ptbp2_human PTBP2 (UniProt Q9UKA9)
# kr101_human KRTAP10-1 = kr101_human KRTAP10-1 (UniProt P60331)
# tfp11_human TFIP11 = tfp11_human TFIP11 (UniProt Q9UBB9)
# atrap_human AGTRAP = atrap_human AGTRAP (UniProt Q6RW13)
# reep6_human REEP6 = reep6_human REEP6 (UniProt Q96HR9)
# Sequence of reep6_human REEP6 (Q96HR9 whole entry): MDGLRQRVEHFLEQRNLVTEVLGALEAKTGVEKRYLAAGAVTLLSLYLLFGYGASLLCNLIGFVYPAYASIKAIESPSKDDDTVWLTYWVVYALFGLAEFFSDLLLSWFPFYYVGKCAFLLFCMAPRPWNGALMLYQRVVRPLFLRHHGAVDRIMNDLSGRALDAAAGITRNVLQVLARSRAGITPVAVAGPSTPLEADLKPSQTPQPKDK
# Sequence of Troponin T, slow skeletal muscle (Homo sapiens), P13805 R39S (P13805 whole entry R39S): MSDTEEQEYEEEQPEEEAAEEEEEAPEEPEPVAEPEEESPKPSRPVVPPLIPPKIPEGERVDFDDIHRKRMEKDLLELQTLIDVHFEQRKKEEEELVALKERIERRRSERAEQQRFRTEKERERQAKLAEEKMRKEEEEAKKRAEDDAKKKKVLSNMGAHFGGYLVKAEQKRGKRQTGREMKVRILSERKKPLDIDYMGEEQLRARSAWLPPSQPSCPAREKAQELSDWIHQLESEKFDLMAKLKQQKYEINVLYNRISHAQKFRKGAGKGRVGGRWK
# Sequence of Zinc finger and SCAN domain-containing protein 22 (Homo sapiens), P10073 A321V (P10073 whole entry A321V, the tested form may be a part): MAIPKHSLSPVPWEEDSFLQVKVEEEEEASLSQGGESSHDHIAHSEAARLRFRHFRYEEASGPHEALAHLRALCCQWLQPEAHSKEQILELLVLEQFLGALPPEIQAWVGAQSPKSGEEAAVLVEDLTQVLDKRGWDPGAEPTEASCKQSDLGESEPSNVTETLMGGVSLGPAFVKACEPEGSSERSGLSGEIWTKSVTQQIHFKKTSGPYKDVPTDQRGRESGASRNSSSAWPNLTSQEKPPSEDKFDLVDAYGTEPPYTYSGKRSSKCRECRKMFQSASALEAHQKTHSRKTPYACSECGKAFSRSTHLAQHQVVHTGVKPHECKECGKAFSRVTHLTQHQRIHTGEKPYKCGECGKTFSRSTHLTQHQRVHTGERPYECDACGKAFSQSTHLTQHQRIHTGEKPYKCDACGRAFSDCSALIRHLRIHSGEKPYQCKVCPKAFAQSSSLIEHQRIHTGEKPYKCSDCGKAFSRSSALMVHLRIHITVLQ
# Sequence of Polypyrimidine tract-binding protein 1 (Homo sapiens), P26599 A173T (P26599 whole entry A173T): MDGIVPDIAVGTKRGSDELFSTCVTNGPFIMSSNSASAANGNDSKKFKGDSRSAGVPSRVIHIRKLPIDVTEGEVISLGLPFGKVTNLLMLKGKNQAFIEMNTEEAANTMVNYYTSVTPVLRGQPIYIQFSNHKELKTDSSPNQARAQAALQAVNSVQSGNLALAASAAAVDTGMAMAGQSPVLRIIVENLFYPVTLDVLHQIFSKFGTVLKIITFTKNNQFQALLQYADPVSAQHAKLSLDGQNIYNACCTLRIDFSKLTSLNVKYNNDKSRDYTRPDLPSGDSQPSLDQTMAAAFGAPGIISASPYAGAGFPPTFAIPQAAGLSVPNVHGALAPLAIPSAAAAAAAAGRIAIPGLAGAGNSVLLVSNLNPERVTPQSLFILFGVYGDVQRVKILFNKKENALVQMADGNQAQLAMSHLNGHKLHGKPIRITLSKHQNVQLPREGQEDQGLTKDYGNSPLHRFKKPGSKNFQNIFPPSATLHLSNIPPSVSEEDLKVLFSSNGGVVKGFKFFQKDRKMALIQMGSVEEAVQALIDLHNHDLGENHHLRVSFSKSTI
# Sequence of Tyrosine-protein kinase Blk (Homo sapiens), P51451 A71T (P51451 whole entry A71T): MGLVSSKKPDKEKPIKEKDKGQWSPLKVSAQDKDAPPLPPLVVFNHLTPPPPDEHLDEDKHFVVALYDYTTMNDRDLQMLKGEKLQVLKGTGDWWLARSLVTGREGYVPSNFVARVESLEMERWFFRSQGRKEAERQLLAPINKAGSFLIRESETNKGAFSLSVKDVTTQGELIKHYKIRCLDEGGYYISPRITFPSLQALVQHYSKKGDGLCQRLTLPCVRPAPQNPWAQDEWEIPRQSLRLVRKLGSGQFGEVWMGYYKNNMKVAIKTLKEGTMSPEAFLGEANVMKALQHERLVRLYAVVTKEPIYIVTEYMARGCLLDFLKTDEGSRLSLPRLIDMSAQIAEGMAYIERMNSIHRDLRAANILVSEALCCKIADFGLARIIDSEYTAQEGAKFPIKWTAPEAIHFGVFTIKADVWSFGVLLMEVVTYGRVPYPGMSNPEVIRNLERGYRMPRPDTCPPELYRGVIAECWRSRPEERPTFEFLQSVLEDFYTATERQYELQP
substance,measurement,setting,value
"Tyrosine-protein kinase Blk (Homo sapiens), P51451 A71T",effect of a mutation on the interaction,stat3_human STAT3,with no effect
same,effect of a mutation on the interaction,efs_human EFS,with no effect
"Troponin T, slow skeletal muscle (Homo sapiens), P13805 R39S",effect of a mutation on the interaction,jkip2_human JAKMIP2,with no effect
same,effect of a mutation on the interaction,ccdb1_human CCNDBP1,with no effect
same,effect of a mutation on the interaction,nf2l2_human NFE2L2,with no effect
"Protein S100-A2 (Homo sapiens), P29034 S62N",effect of a mutation on the interaction,S100A1,with no effect
Golgi-associated PDZ and coiled-coil motif-containing protein (Homo sapiens) (from UniProt Q9HD26) L123V,effect of a mutation on the interaction,vtnc_human VTN,with no effect
same,effect of a mutation on the interaction,mycd_human MYOCD,with no effect
same,effect of a mutation on the interaction,gt253_human CERCAM,with no effect
same,effect of a mutation on the interaction,fosl2_human FOSL2,with no effect
"Zinc finger and SCAN domain-containing protein 22 (Homo sapiens), P10073 A321V",effect of a mutation on the interaction,zsc32_human ZSCAN32,with no effect
same,effect of a mutation on the interaction,pgbd1_human PGBD1,with no effect
same,effect of a mutation on the interaction,zn446_human ZNF446,with no effect
same,effect of a mutation on the interaction,zn496_human ZNF496,with no effect
"NEDD4-like E3 ubiquitin-protein ligase WWP2 (Homo sapiens), O00308 R315C",effect of a mutation on the interaction,leg9b_human LGALS9B,with no effect
same,effect of a mutation on the interaction,anr44_human ANKRD44,with no effect
same,effect of a mutation on the interaction,pdli7_human PDLIM7,with no effect
Golgi reassembly-stacking protein 2 (Homo sapiens) (from UniProt Q9H8Y8) S432F,effect of a mutation on the interaction,rgs3_human RGS3,with no effect
same,effect of a mutation on the interaction,nqo2_human NQO2,with no effect
same,effect of a mutation on the interaction,stox1_human STOX1,with no effect
Toll-interacting protein (Homo sapiens) (from UniProt Q9H0E2) I264V,effect of a mutation on the interaction,tom1_human TOM1,with no effect
"Zinc finger protein 227 (Homo sapiens), Q86WZ6 P249S",effect of a mutation on the interaction,cep70_human CEP70 [1],with no effect
"Zinc finger protein 329 (Homo sapiens), Q86UD4 N182D",effect of a mutation on the interaction,cep70_human CEP70 [2],with no effect
same,effect of a mutation on the interaction,tri41_human TRIM41 [3],with no effect
"Zinc finger protein 490 (Homo sapiens), Q9ULM2 E419K",effect of a mutation on the interaction,cc136_human CCDC136,with no effect
same,effect of a mutation on the interaction,zc4h2_human ZC4H2,with no effect
same,effect of a mutation on the interaction,cep70_human CEP70 [4],with no effect
same,effect of a mutation on the interaction,tri41_human TRIM41 [5],with no effect
same,effect of a mutation on the interaction,mtus2_human MTUS2,with no effect
Toll-interacting protein (Homo sapiens) (from UniProt Q9H0E2) A222S,effect of a mutation on the interaction,rhxf2_human RHOXF2,with no effect
same,effect of a mutation on the interaction,odam_human ODAM,with no effect
"RNA-binding protein FXR2 (Homo sapiens), P51116 K651E",effect of a mutation on the interaction,scel_human SCEL,with no effect
same,effect of a mutation on the interaction,cdkl3_human CDKL3,with no effect
same,effect of a mutation on the interaction,ptps_human PTS,with no effect
same,effect of a mutation on the interaction,ap2m1_human AP2M1,with no effect
same,effect of a mutation on the interaction,frih_human FTH1,with no effect
same,effect of a mutation on the interaction,phs_human PCBD1,with no effect
same,effect of a mutation on the interaction,tb22b_human TBC1D22B,with no effect
same,effect of a mutation on the interaction,pram_human PRAM1,with no effect
same,effect of a mutation on the interaction,lcp2_human LCP2,with no effect
same,effect of a mutation on the interaction,FBP1,disrupting interaction strength
"Polypyrimidine tract-binding protein 1 (Homo sapiens), P26599 A173T",effect of a mutation on the interaction,snrpa_human SNRPA,with no effect
same,effect of a mutation on the interaction,ptbp2_human PTBP2,with no effect
"Zinc finger protein 264 (Homo sapiens), O43296 G166D",effect of a mutation on the interaction,kr101_human KRTAP10-1,with no effect
"Atypical kinase COQ8A, mitochondrial (Homo sapiens), Q8NI60 D100Y",effect of a mutation on the interaction,tfp11_human TFIP11,with no effect
same,effect of a mutation on the interaction,atrap_human AGTRAP,with no effect
same,effect of a mutation on the interaction,reep6_human REEP6,with no effect
